# Experimental data reported in paper PMC11148769.
# Biological target: BA.2.12.1 S trimer (SARS-CoV-2) (UniProt P0DTC2)
# Experiment: cryo-EM structure
substance,measurement,value
BA.2.12.1 S trimer (from UniProt P0DTC2 28-1208) (natural protein),stoichiometry N,3
